Experimental data: article doi:10.1101/2022.01.21.477187 (bioRxiv, 2022)

B1: truncated human CENP-E754 containing five predicted coiled-coils of the native stalk (domain or fragment, UniProt Q02224 1-754, looked up)
chain: MAEEGAVAVCVRVRPLNSREESLGETAQVYWKTDNNVIYQVDGSKSFNFDRVFHGNETTKNVYEEIAAPIIDSAIQGYNGTIFAYGQTASGKTYTMMGSEDHLGVIPRAIHDIFQKIKKFPDREFLLRVSYMEIYNETITDLLCGTQKMKPLIIREDVNRNVYVADLTEEVVYTSEMALKWITKGEKSRHYGETKMNQRSSRSHTIFRMILESREKGEPSNCEGSVKVSHLNLVDLAGSERAAQTGAAGVRLKEGCNINRSLFILGQVIKKLSDGQVGGFINYRDSKLTRILQNSLGGNAKTRIICTITPVSFDETLTALQFASTAKYMKNTPYVNEVSTDEALLKRYRKEIMDLKKQLEEVSLETRAQAMEKDQLAQLLEEKDLLQKVQNEKIENLTRMLVTSSSLTLQQELKAKRKRRVTWCLGKINKMKNSNYADQFNIPTNITTKTHKLSINLLREIDESVCSESDVFSNTLDTLSEIEWNPATKLLNQENIESELNSLRADYDNLVLDYEQLRTEKEEMELKLKEKNDLDEFEALERKTKKDQEMQLIHEISNLKNLVKHAEVYNQDLENELSSKVELLREKEDQIKKLQEYIDSQKLENIKMDLSYSLESIEDPKQMKQTLFDAETVALDAKRESAFLRSENLELKEKMKELATTYKQMENDIQLYQSQLEAKKKMQVDLEKELQSAFNEITKLTSLIDGKVPKDLLCNLELEGKITDLQKELNKEVEENEALREEVILLSELKSLPS
notes: CENP-E, human, N-terminal truncation with the motor domain and five predicted coiled-coils; source: Sf9 cells (baculovirus), purified (HisTrap HP, Superose 6 Increase); not shown: 2x tandem mNeonGreen, C-terminal, kept
B2: human CENP-E483 followed by two tandem mNeonGreen fluorophores (domain or fragment, UniProt Q02224 1-483, looked up)
chain: MAEEGAVAVCVRVRPLNSREESLGETAQVYWKTDNNVIYQVDGSKSFNFDRVFHGNETTKNVYEEIAAPIIDSAIQGYNGTIFAYGQTASGKTYTMMGSEDHLGVIPRAIHDIFQKIKKFPDREFLLRVSYMEIYNETITDLLCGTQKMKPLIIREDVNRNVYVADLTEEVVYTSEMALKWITKGEKSRHYGETKMNQRSSRSHTIFRMILESREKGEPSNCEGSVKVSHLNLVDLAGSERAAQTGAAGVRLKEGCNINRSLFILGQVIKKLSDGQVGGFINYRDSKLTRILQNSLGGNAKTRIICTITPVSFDETLTALQFASTAKYMKNTPYVNEVSTDEALLKRYRKEIMDLKKQLEEVSLETRAQAMEKDQLAQLLEEKDLLQKVQNEKIENLTRMLVTSSSLTLQQELKAKRKRRVTWCLGKINKMKNSNYADQFNIPTNITTKTHKLSINLLREIDESVCSESDVFSNTLDTLSEIE
notes: CENP-E, human, N-terminal truncation with the motor domain and the first predicted coiled-coil (334-401); Codon-optimised synthetic gene in pFastBac1; predicted monomer mass 109 kDa with the tags; also called truncated CENP-E483; source: Sf9 cells (baculovirus), purified (HisTrap HP, Superose 6 Increase); not shown: 2x tandem mNeonGreen, C-terminal, kept

How the values were obtained:
[1] = target: the molecule itself; test: single-molecule photobleaching steps and initial intensity (TIRF); 0.5 nM fluorescent motor adsorbed non-specifically on silanised coverslips, BRB80 with oxygen scavengers; bleaching steps counted by hand; K560-2mNG as intensity reference
[2] = target: the molecule itself; test: native gel or EMSA; native PAGE of purified CENP-E483; species at ~100 kDa and ~230 kDa

Protein | binding result [1] | stoichiometry N [2]
B1 | binds | –
B2 | – | 2
